The target in test [1] is T1, MAGE-A1 peptide on HLA-A*02:01 (human).
T1 peptide: KVLEYVIKV
The test can be described thus: JKR9 reporter + peptide-loaded T2, 16 h; full-length, on cells.

Test [2] has as its target MAGE-A1 target antigen peptide … presented by HLA-A*02:01 on cells (human). The test can be described thus: cell-based or functional assay. Also on record: EC50 Enhancement Factor: unit not given beside the values.

B1: ht27M1004 (TCR, V domains shown)
Valpha: GEDVEQSLFLSVREGDSSVINCTYTDSSSTYLYWYKQEPGAGLQLLTYIFSNMDMKQDQRLTVLLNKKDKHLSLRIADTQTGDSAIYFCAGSGGGTDKLIFGTGTRLQVFP
Vbeta: GAVVSQHPSWVICKSGTSVKIECRSLDFQATTMFWYRQFPKQSLMLMATSNEGSKATYEQGVEKDKFLINHASLTLSTLTVTSAHPEDSSFYICSAREPGQGPFEQYFGPGTRLTVT
Turning to B1, in test [1], the EC50 of peptide was 17.6 nM. Also, in test [2], the EC50 Enhancement Factor worked out at 944 and the EC50 Value (M), JKR9 reporter activation by peptide-loaded T2 cells came to 1.76e-08 M.

B2: ht27M1005 (TCR, V domains shown)
Valpha: GEDVEQSLFLSVREGDSSVINCTYTDSSSTYLYWYKQEPGAGLQLLTYIFSNMDMKQDQRLTVLLNKKDKHLSLRIADTQTGDSAIYFCAGSGGGTDKLIFGTGTRLQVFP
Vbeta: GAVVSQHPSWVICKSGTSVKIECRSLDFQATTMFWYRQFPKQSLMLMATSNEGSKATYEQGVEKDKFLINHASLTLSTLTVTSAHPEDSSFYICSAREPGQGPLEQYFGPGTRLTVT
As for B2, in test [1], the EC50 of peptide is 1550 nM. Moreover, in test [2], the EC50 Enhancement Factor turned out to be 11 and the EC50 Value (M), JKR9 reporter activation by peptide-loaded T2 cells stood at 1.55e-06 M.

B3: ht27M1018 (TCR, V domains shown)
Valpha: GEDVEQSLFLSVREGDSSVINCTYTDSSSTYLYWYKQEPGAGLQLLTYIFSNMDMKQDQRLTVLLNKKDKHLSLRIADTQTGDSAIYFCAGSGGGTDKLIFGTGTRLQVFP
Vbeta: GAVVSQHPSWVICKSGTSVKIECRSLDFQATTMFWYRQFPKQSLMLMATSDYQTCVTYEQGVEKDKFLINHASLTLSTLTVTSAHPEDSSFYICSAREPGGGPFEQYFGPGTRLTVT
B3: the EC50 of peptide in test [1] came out at 63.6 nM. For the same molecule, in test [2], the EC50 Enhancement Factor stood at 262 and the EC50 Value (M), JKR9 reporter activation by peptide-loaded T2 cells was determined as 6.36e-08 M.

B4: ht27M1013 (TCR, V domains shown)
Valpha: GEDVEQSLFLSVREGDSSVINCTYTDSSSTYLYWYKQEPGAGLQLLTYIFSNMDMKQDQRLTVLLNKKDKHLSLRIADTQTGDSAIYFCAGSGGGTDKLIFGTGTRLQVFP
Vbeta: GAVVSQHPSWVICKSGTSVKIECRSLDFQATTMFWYRQFPKQSLMLMATSNEGSKATYEQGVEKDKFLINHASLTLSTLTVTSAHPEDSSFYICSAREPGSGPFEQYFGPGTRLTVT
On to B4, for which, in test [1], the EC50 of peptide is 19.8 nM. Besides, in test [2], the EC50 Enhancement Factor stood at 841 and the EC50 Value (M), JKR9 reporter activation by peptide-loaded T2 cells was found to be 1.98e-08 M.

B5: ht27M1006 (TCR, V domains shown)
Valpha: GEDVEQSLFLSVREGDSSVINCTYTDSSSTYLYWYKQEPGAGLQLLTYIFSNMDMKQDQRLTVLLNKKDKHLSLRIADTQTGDSAIYFCAGSGGGTDKLIFGTGTRLQVFP
Vbeta: GAVVSQHPSWVICKSGTSVKIECRSLDFQATTMFWYRQFPKQSLMLMATSNEGSKATYEQGVEKDKFLINHASLTLSTLTVTSAHPEDSSFYICSAREPGQGPWEQYFGPGTRLTVT
As to B5, the EC50 of peptide in test [1] was determined as 37.4 nM. Besides, in test [2], the EC50 Enhancement Factor was 445 and the EC50 Value (M), JKR9 reporter activation by peptide-loaded T2 cells turned out to be 3.74e-08 M.

B6: ht27M1019 (TCR, V domains shown)
Valpha: GEDVEQSLFLSVREGDSSVINCTYTDSSSTYLYWYKQEPGAGLQLLTYIFSNMDMKQDQRLTVLLNKKDKHLSLRIADTQTGDSAIYFCAGSGGGTDKLIFGTGTRLQVFP
Vbeta: GAVVSQHPSWVICKSGTSVKIECRSLDFQATTMFWYRQFPKQSLMLMATSDYQTCVTYEQGVEKDKFLINHASLTLSTLTVTSAHPEDSSFYICSAREPGSGPFEQYFGPGTRLTVT
Regarding B6, the EC50 of peptide in test [1] was 22.1 nM. Moreover, in test [2], the EC50 Enhancement Factor stood at 751 and the EC50 Value (M), JKR9 reporter activation by peptide-loaded T2 cells is 2.21e-08 M.

B7: ht27M1011 (TCR, V domains shown)
Valpha: GEDVEQSLFLSVREGDSSVINCTYTDSSSTYLYWYKQEPGAGLQLLTYIFSNMDMKQDQRLTVLLNKKDKHLSLRIADTQTGDSAIYFCAGSGGGTDKLIFGTGTRLQVFP
Vbeta: GAVVSQHPSWVICKSGTSVKIECRSLDFQATTMFWYRQFPKQSLMLMATSDYQTCVTYEQGVEKDKFLINHASLTLSTLTVTSAHPEDSSFYICSAREPGQGPWEQYFGPGTRLTVT
With B7, in test [1], the EC50 of peptide came to 8.24 nM. Also, in test [2], the EC50 Enhancement Factor was determined as 2020 and the EC50 Value (M), JKR9 reporter activation by peptide-loaded T2 cells worked out at 8.24e-09 M.

B8: ht27M1128 (TCR, V domains shown)
Valpha: GEDVEQSLFLSVREGDSSVINCTYTDSSSTYLYWYKQEPGAGLQLLTYIFSNMDMKQDQRLTVLLNKKDKHLSLRIADTQTGDSAIYFCAGSGGGTDKLIFGTGTRLQVFP
Vbeta: GAVVSQHPSWVICKSGTSVKIECRSLDFQATTMFWYRQFPKQSLMLMATSNEGSKATYEQGVEKDKFLINHASLTLSTLTVTSAHPEDSSFYICLAREPGQGPYEQYFGPGTRLTVT
On to B8, for which the EC50 of peptide in test [1] was found to be 39.5 nM. Besides, in test [2], the EC50 Enhancement Factor worked out at 422 and the EC50 Value (M), JKR9 reporter activation by peptide-loaded T2 cells amounted to 3.95e-08 M.

B9: ht27M1001 (TCR, V domains shown)
Valpha: GEDVEQSLFLSVREGDSSVINCTYTDSSSTYLYWYKQEPGAGLQLLTYIFSNMDMKQDQRLTVLLNKKDKHLSLRIADTQTGDSAIYFCAGSGGGTDKLIFGTGTRLQVFP
Vbeta: GAVVSQHPSWVICKSGTSVKIECRSLDFQATTMFWYRQFPKQSLMLMATSDYQTCVTYEQGVEKDKFLINHASLTLSTLTVTSAHPEDSSFYICSAREPGQGPYEQYFGPGTRLTVT
As to B9, in test [1], the EC50 of peptide stood at 42.8 nM. In addition, in test [2], the EC50 Enhancement Factor is 388 and the EC50 Value (M), JKR9 reporter activation by peptide-loaded T2 cells was 4.28e-08 M.

B10: ht27M1009 (TCR, V domains shown)
Valpha: GEDVEQSLFLSVREGDSSVINCTYTDSSSTYLYWYKQEPGAGLQLLTYIFSNMDMKQDQRLTVLLNKKDKHLSLRIADTQTGDSAIYFCAGSGGGTDKLIFGTGTRLQVFP
Vbeta: GAVVSQHPSWVICKSGTSVKIECRSLDFQATTMFWYRQFPKQSLMLMATSDYQTCVTYEQGVEKDKFLINHASLTLSTLTVTSAHPEDSSFYICSAREPGQGPFEQYFGPGTRLTVT
With B10, in test [1], the EC50 of peptide was 6.12 nM. Also, in test [2], the EC50 Enhancement Factor was 2720 and the EC50 Value (M), JKR9 reporter activation by peptide-loaded T2 cells stood at 6.12e-09 M.

B11: ht27M1010 (TCR, V domains shown)
Valpha: GEDVEQSLFLSVREGDSSVINCTYTDSSSTYLYWYKQEPGAGLQLLTYIFSNMDMKQDQRLTVLLNKKDKHLSLRIADTQTGDSAIYFCAGSGGGTDKLIFGTGTRLQVFP
Vbeta: GAVVSQHPSWVICKSGTSVKIECRSLDFQATTMFWYRQFPKQSLMLMATSDYQTCVTYEQGVEKDKFLINHASLTLSTLTVTSAHPEDSSFYICSAREPGQGPLEQYFGPGTRLTVT
Turning to B11, in test [1], the EC50 of peptide was 20.3 nM. For the same molecule, in test [2], the EC50 Enhancement Factor was 820 and the EC50 Value (M), JKR9 reporter activation by peptide-loaded T2 cells is 2.03e-08 M.

B12: ht27M1012 (TCR, V domains shown)
Valpha: GEDVEQSLFLSVREGDSSVINCTYTDSSSTYLYWYKQEPGAGLQLLTYIFSNMDMKQDQRLTVLLNKKDKHLSLRIADTQTGDSAIYFCAGSGGGTDKLIFGTGTRLQVFP
Vbeta: GAVVSQHPSWVICKSGTSVKIECRSLDFQATTMFWYRQFPKQSLMLMATSNEGSKATYEQGVEKDKFLINHASLTLSTLTVTSAHPEDSSFYICSAREPGGGPFEQYFGPGTRLTVT
For B12, the EC50 of peptide in test [1] is 26.1 nM. Further, in test [2], the EC50 Enhancement Factor came out at 637 and the EC50 Value (M), JKR9 reporter activation by peptide-loaded T2 cells turned out to be 2.61e-08 M.
